Test results reported in article doi:10.1101/2025.07.02.662585 (bioRxiv, 2025).

T1: Avo3 (yeast (endogenous in yeast cells), UniProt P40061 1-1430)
T1 sequence: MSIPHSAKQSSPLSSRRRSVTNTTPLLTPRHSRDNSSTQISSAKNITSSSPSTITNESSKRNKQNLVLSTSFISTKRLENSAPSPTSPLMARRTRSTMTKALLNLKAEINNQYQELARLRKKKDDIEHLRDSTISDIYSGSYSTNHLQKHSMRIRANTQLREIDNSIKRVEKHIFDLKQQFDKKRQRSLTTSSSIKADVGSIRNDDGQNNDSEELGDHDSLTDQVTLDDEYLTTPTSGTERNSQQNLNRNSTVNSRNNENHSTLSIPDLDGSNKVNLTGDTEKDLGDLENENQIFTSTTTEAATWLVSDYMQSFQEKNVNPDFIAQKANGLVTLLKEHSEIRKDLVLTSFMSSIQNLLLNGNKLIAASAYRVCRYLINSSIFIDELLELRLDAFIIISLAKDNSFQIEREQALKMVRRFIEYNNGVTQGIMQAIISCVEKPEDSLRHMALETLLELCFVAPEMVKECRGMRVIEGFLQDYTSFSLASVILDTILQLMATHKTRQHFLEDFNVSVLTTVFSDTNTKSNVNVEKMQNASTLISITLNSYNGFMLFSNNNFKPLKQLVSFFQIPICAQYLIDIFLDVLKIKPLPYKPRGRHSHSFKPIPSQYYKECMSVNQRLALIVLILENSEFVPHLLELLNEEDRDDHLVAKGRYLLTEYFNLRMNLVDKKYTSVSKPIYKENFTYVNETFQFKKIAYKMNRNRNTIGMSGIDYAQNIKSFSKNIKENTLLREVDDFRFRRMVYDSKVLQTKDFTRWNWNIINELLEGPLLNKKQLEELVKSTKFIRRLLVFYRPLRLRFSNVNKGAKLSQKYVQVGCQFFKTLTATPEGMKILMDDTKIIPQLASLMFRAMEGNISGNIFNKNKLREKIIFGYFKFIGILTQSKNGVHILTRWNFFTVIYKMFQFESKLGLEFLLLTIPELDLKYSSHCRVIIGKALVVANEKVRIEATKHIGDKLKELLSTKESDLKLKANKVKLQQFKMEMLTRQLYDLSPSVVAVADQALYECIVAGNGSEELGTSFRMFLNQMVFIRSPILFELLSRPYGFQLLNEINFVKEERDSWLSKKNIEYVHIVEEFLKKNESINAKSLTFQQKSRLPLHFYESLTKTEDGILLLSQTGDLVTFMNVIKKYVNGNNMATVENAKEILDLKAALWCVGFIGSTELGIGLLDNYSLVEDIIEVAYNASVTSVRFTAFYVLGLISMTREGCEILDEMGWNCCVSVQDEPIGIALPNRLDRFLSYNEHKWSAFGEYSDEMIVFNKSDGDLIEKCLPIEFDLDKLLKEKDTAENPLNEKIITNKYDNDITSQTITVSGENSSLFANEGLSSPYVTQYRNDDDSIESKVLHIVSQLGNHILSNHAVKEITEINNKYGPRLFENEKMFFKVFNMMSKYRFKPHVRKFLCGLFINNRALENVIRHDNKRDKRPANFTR

B1: Avo1 (natural protein)
chain: MDTVTVLNELRAQFLRVCPEKDQMKRIIKPYIPVDEFNTEQCLDSSIRELYMNSDGVSLLPELESPPVSKDFMENYASLGKMRIMRENEGQKGKANQNLIGAEKTERDEEETRNLQDKSAKNTLIVEENGTLRYNPLNSSASNSLLNDDDHTSGKHHKTSSKEDSYLNSSMEMQKKSSKRSSLPFVRIFKSRRDHSNTSGNKNVMNTTNTRAKSSTLHPPGARHNKKGSKFDMNFDFDENLEEEDDDDDDDEEGDDIHSQFFQLDDDFDAKGSGASPAHKGINGMSNNKNNTYTNNRNSISILDDRESSNGNIGSASRLKSHFPTSQKGKIFLTDNKNDGQKSDSLNANKGIHGDGSSASGNGSVSRDGLTETESNNISDMESYINEKDLDDLNFDTVTSNINKTVSDLGGHESTNDGTAVMNRDSKDSRSNSNEFNAQNRDRITPGSSYGKSLLGSEYSEERYSNNDSSTMESGEMSLDSDMQTNTIPSHSIPMSMQKYGIYHGDDDSTLNNVFDKAVLTMNSSRHPKERRDTVISGKEPTSLTSSNRKFSVSSNLTSTRSPLLRGHGRTSSTASSEHMKAPKVSDSVLHRARKSTLTLKQDHSQPSVPSSVHKSSKEGNILIEKTTDYLVSKPKASQLSNMFNKKKKRTNTNSVDVLEYFSFVCGDKVPNYESMGLEIYIQASKKYKRNSFTTKVRKSSTIFEVIGFALFLYSTEKKPDNFEEDGLTVEDISNPNNFSLKIVDEDGEPFEDNFGKLDRKSTIQSISDSEVVLCKVDDAEKSQNEIETPLPFETGGGLMDASTLDANSSHDTTDGTINQLSFYKPIIGNEDDIDKTNGSKIIDVTVYLYPNVNPKFNYTTISVLVTSHINDILVKYCKMKNMDPNEYALKVLGKNYILDLNDTVLRLDGINKVELISKKDARELHLEKMKPDLKKPVLPTIQSNDLTPLTLEPLNSYLKADAGGAVAAIPENTKVTSKAKKISTKYKLGLAKQHSSSSVASGSVSTAGGLANGNGFFKNKNSSKSSLHGTLQFHNINRSQSTMEHTPDTPNGVGDNFQDLFTGAYHKYKVWRRQQMSFINKHERTLAIDGDYIYIVPPEGRIHWHDNVKTKSLHISQVVLVKKSKRVPEHFKIFVRREGQDDIKRYYFEAVSGQECTEIVTRLQNLLSAYRMNHK

What was measured:
Avo3 = biological target: T1, Avo3; assay: cryo-EM structure
Avo1 = biological target: B1; assay: cryo-EM structure

| Binder | binding result (Avo3) | binding result (Avo1) |
| --- | --- | --- |
| Avo2 (natural protein) MLKEPSVRLREAIIEGNLLIVKRLLRRNPDLLTNIDSENGWSSLHYASYHGRYLICVYLIQLGHDKHELIKTFKGNTCVHLALMKGHEQTLHLLLQQFPRFINHRGENGRAPIHIACMNDYYQCLSLLIGVGADLWVMDTNGDTPLHVCLEYGSISCMKMLLNEGEVSLDDNVRDKGNWKPIDVAQTFEVGNIYSKVLKEVKKKGPPLGAGKKPSSFRTPILNAKATFEDGPSPVLSMNSPYSLYSNNSPLPVLPRRISTHTTSGNGGNRRSSITNPVFNPRKPTLSTDSFSSSSNSSSRLRVNSINVKTPVGVSPKKELVSESVRHSATPTSPHNNIALINRYLLPNKSNDNVRGDSQTATINDDGGGGNGGDATIGMGLRKDPDDENENKYKIKVNNGEPRRRVSLLNIPISKLRNSNNTRAED | binds | – |
| B1 | binds | – |
| Bit61 (natural protein) MTAEDILLRERTSTTTQRPVNSEQYLNVQLATAPVKNFQTTSEISRQTLVDTSNDDVYSIKNLKGSRNPISPSVSNVGFQSIFHTVDHPRSKVSVASNHSLRSNDNASAATSKSGSSQIGESHSVDTVECSNNLSKKLSSDAISITQKSLHSTPSGRYMKGKASGFFNRRNRAHTTISSDPASFLTDSSTLHNSSHSFRNVIKNFFQNKSHRHIGQDAIEPAIPNSLSKFLHSSYGRHKSPSQFIHTNAGQLVDSGTSVYSLNVNPSGVNPNTIVEDPLSGTDPASPNPVSMLHDLLRNLPSLEANYKHFNSQELTTLTNNIWNIFCSNVAELFRTQRIWKLRAKIENFNEVLEFYCILKTDPRVTHSGMNRIISDLKEFLVSSLYNLENQIVFNYSNEDTINNALKRLGVIWRIFYQEVYYDLAAVLLPLDQSIREDGNSTVLKSGNESRTHINGNYSIGFLLLMCFRDSIVLPCYENFVNSNDGISKSFQLYIFNQEEESNVTETDKLTLLQCFGILSTIQSNDRNQRIIEELLAGIRMSI | binds | – |
| Lst8 (natural protein) MSVILVSAGYDHTIRFWEALTGVCSRTIQHSDSQVNRLEITNDKKLLATAGHQNVRLYDIRTTNPNPVASFEGHRGNVTSVSFQQDNRWMVTSSEDGTIKVWDVRSPSIPRNYKHNAPVNEVVIHPNQGELISCDRDGNIRIWDLGENQCTHQLTPEDDTSLQSLSMASDGSMLAAANTKGNCYVWEMPNHTDASHLKPVTKFRAHSTYITRILLSSDVKHLATCSADHTARVWSIDDDFKLETTLDGHQRWVWDCAFSADSAYLVTASSDHYVRLWDLSTREIVRQYGGHHKGAVCVALNDV | – | binds |
